The text below walks through data of patent US20180273587A1 (AILERON THERAPEUTICS, published 2018).

Test in all cases: Ki table, method not stated
In test [1] the target is T1, MCL-1 (UniProt Q07820 172-327, limits assumed).
T1 construct: also called Myeloid cell leukemia 1

The target of test [2] is BCL-XL (UniProt Q07817 1-209).
Test [3] concerns the target BCL-2 (UniProt P10415 1-217, limits assumed).

Positions of bridges follow the written chain, without caps; N, C: chain ends. Non-standard residues stand in square brackets, D forms with d. R8 = C=CCCCCCC[C@@](C)(N)C(=O)O; S5 = C=CCCC[C@](C)(N)C(=O)O

T1 sequence (Q07820 172-327 limits assumed): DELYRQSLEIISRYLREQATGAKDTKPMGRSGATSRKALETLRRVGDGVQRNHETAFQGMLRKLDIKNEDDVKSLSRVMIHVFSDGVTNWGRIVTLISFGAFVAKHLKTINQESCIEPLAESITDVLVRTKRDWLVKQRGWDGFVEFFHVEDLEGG
Sequence of BCL-XL (Q07817 1-209): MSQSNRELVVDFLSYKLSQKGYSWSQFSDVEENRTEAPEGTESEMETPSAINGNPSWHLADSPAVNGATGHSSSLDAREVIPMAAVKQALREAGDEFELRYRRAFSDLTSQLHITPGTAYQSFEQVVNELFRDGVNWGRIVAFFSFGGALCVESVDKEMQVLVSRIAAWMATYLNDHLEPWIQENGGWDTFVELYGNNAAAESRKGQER
Sequence of BCL-2 (P10415 1-217 limits assumed): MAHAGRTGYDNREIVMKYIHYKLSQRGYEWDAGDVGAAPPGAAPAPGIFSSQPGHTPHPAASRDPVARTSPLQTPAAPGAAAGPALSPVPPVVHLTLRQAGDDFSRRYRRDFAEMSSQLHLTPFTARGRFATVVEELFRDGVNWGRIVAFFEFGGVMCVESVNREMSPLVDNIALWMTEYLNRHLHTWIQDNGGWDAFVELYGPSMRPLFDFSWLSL

B1: SEQ ID NO: 1662 (peptide)
peptide: Ac-IWIAQALR[R8]IGDAIN[S5]YYA-NH2
modifications: staple 9-16
SMILES: CC[C@H](C)[C@H](NC(C)=O)C(=O)N[C@@H](Cc1c[nH]c2ccccc12)C(=O)N[C@H](C(=O)N[C@@H](C)C(=O)N[C@@H](CCC(N)=O)C(=O)N[C@@H](C)C(=O)N[C@@H](CC(C)C)C(=O)N[C@@H](CCCNC(=N)N)C(=O)N[C@]1(C)CCCCCCC=CCCC[C@@](C)(C(=O)N[C@@H](Cc2ccc(O)cc2)C(=O)N[C@@H](Cc2ccc(O)cc2)C(=O)N[C@@H](C)C(N)=O)NC(=O)[C@H](CC(N)=O)NC(=O)[C@H]([C@@H](C)CC)NC(=O)[C@H](C)NC(=O)[C@H](CC(=O)O)NC(=O)CNC(=O)[C@H]([C@@H](C)CC)NC1=O)[C@@H](C)CC
The Ki is a dissociation constant, usually derived from enzyme kinetics or from competition with a known ligand. Read a high Ki as lower affinity. B1: the Ki was found to be 3.4 nM in test [1], 14.1 nM in test [2] and 113 nM in test [3].

B2: SEQ ID NO: 1666 (peptide)
peptide: Ac-IWIAQALR[R8]IADQFN[S5]YYA-NH2
modifications: staple 9-16
SMILES: CC[C@H](C)[C@H](NC(C)=O)C(=O)N[C@@H](Cc1c[nH]c2ccccc12)C(=O)N[C@H](C(=O)N[C@@H](C)C(=O)N[C@@H](CCC(N)=O)C(=O)N[C@@H](C)C(=O)N[C@@H](CC(C)C)C(=O)N[C@@H](CCCNC(=N)N)C(=O)N[C@]1(C)CCCCCCC=CCCC[C@@](C)(C(=O)N[C@@H](Cc2ccc(O)cc2)C(=O)N[C@@H](Cc2ccc(O)cc2)C(=O)N[C@@H](C)C(N)=O)NC(=O)[C@H](CC(N)=O)NC(=O)[C@H](Cc2ccccc2)NC(=O)[C@H](CCC(N)=O)NC(=O)[C@H](CC(=O)O)NC(=O)[C@H](C)NC(=O)[C@H]([C@@H](C)CC)NC1=O)[C@@H](C)CC
Regarding B2, the inhibitory constant (Ki) in test [1] came to 116 nM; in test [2] it was 7.7 nM; in test [3], 25.6 nM.

B3: SEQ ID NO: 1665 (peptide)
peptide: Ac-IWIAQALR[R8]IADAFN[S5]YYA-NH2
modifications: staple 9-16
SMILES: CC[C@H](C)[C@H](NC(C)=O)C(=O)N[C@@H](Cc1c[nH]c2ccccc12)C(=O)N[C@H](C(=O)N[C@@H](C)C(=O)N[C@@H](CCC(N)=O)C(=O)N[C@@H](C)C(=O)N[C@@H](CC(C)C)C(=O)N[C@@H](CCCNC(=N)N)C(=O)N[C@]1(C)CCCCCCC=CCCC[C@@](C)(C(=O)N[C@@H](Cc2ccc(O)cc2)C(=O)N[C@@H](Cc2ccc(O)cc2)C(=O)N[C@@H](C)C(N)=O)NC(=O)[C@H](CC(N)=O)NC(=O)[C@H](Cc2ccccc2)NC(=O)[C@H](C)NC(=O)[C@H](CC(=O)O)NC(=O)[C@H](C)NC(=O)[C@H]([C@@H](C)CC)NC1=O)[C@@H](C)CC
As to B3, the Ki in test [1] was 96.3 nM; in test [2], 7.7 nM; in test [3], 84 nM.

B4: SEQ ID NO: 1664 (peptide)
peptide: Ac-IWIAQAAR[R8]IGDAAN[S5]YYA-NH2
modifications: staple 9-16
SMILES: CC[C@H](C)[C@H](NC(C)=O)C(=O)N[C@@H](Cc1c[nH]c2ccccc12)C(=O)N[C@H](C(=O)N[C@@H](C)C(=O)N[C@@H](CCC(N)=O)C(=O)N[C@@H](C)C(=O)N[C@@H](C)C(=O)N[C@@H](CCCNC(=N)N)C(=O)N[C@]1(C)CCCCCCC=CCCC[C@@](C)(C(=O)N[C@@H](Cc2ccc(O)cc2)C(=O)N[C@@H](Cc2ccc(O)cc2)C(=O)N[C@@H](C)C(N)=O)NC(=O)[C@H](CC(N)=O)NC(=O)[C@H](C)NC(=O)[C@H](C)NC(=O)[C@H](CC(=O)O)NC(=O)CNC(=O)[C@H]([C@@H](C)CC)NC1=O)[C@@H](C)CC
In the case of B4, the figures for the inhibition constant Ki in test [1], in test [2] and in test [3] were 177 nM, 154 nM and 502 nM, respectively.
